The results in this text go back to PMC7145548.

Usually Kd stands for the constant that tells how readily two partners part at equilibrium.

Series [1] deals with T1, hsRosR (Halobacterium salinarum (Halobacterium …, UniProt Q9HSF4 1-116)).
T1 sequence: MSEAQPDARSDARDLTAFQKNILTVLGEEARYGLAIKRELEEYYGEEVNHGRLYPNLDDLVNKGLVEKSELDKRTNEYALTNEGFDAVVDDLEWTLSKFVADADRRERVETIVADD
The series is described as follows: X-ray crystallography.

The target of series [2] is T1, hsRosR. The series is described as follows: X-ray crystallography. This is another data set of the same source.
In series [3] the target is T1, hsRosR. Put plainly: X-ray crystallography. The source holds these as a separate data set.
Series [4] addresses T1, hsRosR. Put plainly: fluorescence anisotropy. A general note: In fluorescence polarisation assays a small probe gives low polarisation when free and higher when bound to something large.
Series [5] addresses T1, hsRosR. The series is described as follows: fluorescence anisotropy. The source holds these as a separate data set.
The target in series [6] is T1, hsRosR. The series is described as follows: ITC.
For series [7], the target named is T1, hsRosR. Put plainly: ITC. The source holds these as a separate data set.
For series [8], the target named is T1, hsRosR. The series is described as follows: fluorescence anisotropy. This is another data set of the same source.
Series [9] deals with T1, hsRosR. The series is described as follows: fluorescence anisotropy. This is another data set of the same source.
For series [10], the target named is T1, hsRosR. The series is described as follows: fluorescence anisotropy. The source holds these as a separate data set.
For series [11], the target named is T1, hsRosR. The series is described as follows: fluorescence anisotropy. The source holds these as a separate data set.
In series [12] the target is T1, hsRosR. Put plainly: fluorescence anisotropy. The source holds these as a separate data set.

B1: S5 (28 bp) (dsDNA)
DNA 1: GCGAAGTGTCATCCCTCTTACATGACTT
DNA 2: AAGTCATGTAAGAGGGATGACACTTCGC
For the molecule B1, the binding result in series [1] was “binds”.

B2: S4 (28 bp) (dsDNA)
DNA 1: CCGAAGTGTAAACGCGTTGACATGTGGT
DNA 2: ACCACATGTCAACGCGTTTACACTTCGG
Turning to B2, in series [2], the binding result is reported as “binds”.

B3: SG (28 bp) (dsDNA)
DNA 1: GCGACGTGTATTTCCCCTGACACTAGCG
DNA 2: CGCTAGTGTCAGGGGAAATACACGTCGC
In the case of B3, in [3], the binding result is “binds”.

B4: GS5 (dsDNA)
DNA 1: AGCGAGGACACTGCTGGCGGTGTCGCCGTC
DNA 2: GACGGCGACACCGCCAGCAGTGTCCTCGCT
For the molecule B4, the binding result in [4] is recorded as “no binding”.

B5: S3 (dsDNA)
DNA 1: GCACATGTAAGTCTATTGACATGTTCTTTCCCTCG
DNA 2: CGAGGGAAAGAACATGTCAATAGACTTACATGTGC
B5 returned a Kd in series [5] of 68 ± 11.3 nM.

B6: S2 (dsDNA)
DNA 1: GCGCTCATGTCAACCTTCTTACACTTCCTCTCCCG
DNA 2: CGGGAGAGGAAGTGTAAGAAGGTTGACATGAGCGC
Take B6: in [5], the dissociation constant (Kd) worked out at 60.1 ± 18.8 nM.

B7: S1 (35 bp) (dsDNA)
DNA 1: GCGAGGTGTAAATTGTCTGACATGTTCTTATTGGG
DNA 2: CCCAATAAGAACATGTCAGACAATTTACACCTCGC
In the case of B7, in [4], the Kd is 49.3 ± 6.18 nM.

B8: S1 (25 bp) (dsDNA)
DNA 1: GTGTAAATTGTCTGACATGTTCTTA
DNA 2: TAAGAACATGTCAGACAATTTACAC
On to B8, for which the Kd was found to be 259 ± 9.75 nM in [6]; 91 ± 3.25 nM in [7]; 169 ± 30.2 nM in series [8]; 37.2 ± 2.36 nM in [4]; 25.9 ± 2.02 nM in series [9]; 78.3 ± 8.34 nM in [10]. Also, the Kd amounted to 80.2 ± 10.2 nM in [11] and 24 ± 3.37 nM in series [12].

B9: S5 (35 bp) (dsDNA)
DNA 1: GCGAAGTGTCATCCCTCTTACATGACTTGTCTTGG
DNA 2: CCAAGACAAGTCATGTAAGAGGGATGACACTTCGC
As for B9, the Kd in series [5] is 99.5 ± 10.6 nM.

B10: GS2 (second) (dsDNA)
DNA 1: TTGAATTTGTGGGGGCAGGGACAGCCCTGA
DNA 2: TCAGGGCTGTCCCTGCCCCCACAAATTCAA
B10: the binding result in series [4] is recorded as “no binding”.

B11: S1 (28 bp) (dsDNA)
DNA 1: GCGAGGTGTAAATTGTCTGACATGTTCT
DNA 2: AGAACATGTCAGACAATTTACACCTCGC
For the molecule B11, the dissociation constant Kd in series [4] was 53.5 ± 6.54 nM.

B12: GS2 (first) (dsDNA)
DNA 1: ATCGGGACAATCGCGTCTCTGTCGATCG
DNA 2: CGATCGACAGAGACGCGATTGTCCCGAT
As for B12, the binding result in series [4] is on record as “no binding”.

B13: S4 (35 bp) (dsDNA)
DNA 1: GCCCGAAGTGTAAACGCGTTGACATGTGGTGCTGG
DNA 2: CCAGCACCACATGTCAACGCGTTTACACTTCGGGC
Consider B13, for which the Kd in [5] was determined as 91.6 ± 13.2 nM.

B14: GS1 (dsDNA)
DNA 1: TAATAGACAGGGAGATCGATGTCTGCTA
DNA 2: TAGCAGACATCGATCTCCCTGTCTATTA
For the molecule B14, the binding result in [4] was “no binding”.
